Assay results as given in patent publication US7531345B2, “Mutations for enhanced tyrosine production” (Massachusetts Institute of Technology, priority 2005, dated 2009).
Several values for one entry are separate records, joined by “and”; a condition that tells them apart may be missing. Equal values may be shown once.

Legend:
E. coli DH5α = assay: Growth of E. coli DH5α strains in the presence of m-fluoro-D,L-tyrosine (OD600); assay type: cell-based, Escherichia coli
Method: The growth in E. coli DH5α strains harboring eight different plasmids are presented: −, pZE21::tyr^WT; +, pZE21::tyrA^fbr-5; ▪, pZE21::tyrA^fbr-7; ▴, pZE21::tyrA^fbr-10; ♦, pZE21::tyrA^fbr-13; ▾, pZE21::tyrA^fbr-15; ? , pZE21::tyrA^fbr-18; ●, pZE21::tyrA^fbr-20. […] E. coli cells were cultivated in MOPS-buffered minimal medium containing m-fluoro-D,L-tyrosine. After incubation at 37° C. at 225 rpm on a rotary shaker for 20 h, the optical density at 600 nm (OD600) was measured.
Nucleotide analogue mutagenesis was carried out in the presence of 2 and 20 μM […] (8-oxo-dGTP) and 6-(2-deoxy-β-D-ribofuranosyl)-3,4-dihydro-8H-pyrimido-[4,5-c][1,2]oxazin-7-one (dPTP) (Zaccolo, M., D. et al. 1996, J. Mol. Biol. 255: 589-603). Using the plasmid pZE21::tyrA^WT as template, 10, 20 and 30 amplification cycles with the primers mentioned above were performed. The 1.1 kbp PCR products were gel-purified, and the mutated tyrA genes were amplified in a second PCR reaction under regular conditions. Subsequently, the gel-purified DNA fragments were pooled, digested with KpnI and MluI, ligated into pZE21-MCS1, and transformed to highly competent E. coli DH5α cells (Invitrogen). Putative tyrA^fbr mutants were selected on minimal medium agar plates with 20 μg/ml kanamycin and 2 mM m-flouro-D,L-tyrosine.
Mutants of the tyrA gene from E. coli K12 were generated by error-prone PCR and cloned into pZE21-MCS1. […] From 621 obtained tyrA^fbr mutants, seven mutants were chosen for detailed analyses.

[1] = target: prephenate dehydrogenase (PDH) activity of TyrA (CM/PDH) protein (Escherichia coli, UniProt P07023); assay: PDH activity measurement with purified TyrA proteins (NADH formation, 340 nm); assay type: biochemical, Escherichia coli K12; conditions: 20 μM tyrosine, purified protein (FIG. 2)
Chain of prephenate dehydrogenase (PDH) activity of TyrA (CM/PDH) protein (Escherichia coli, UniProt P07023) (P07023 whole entry): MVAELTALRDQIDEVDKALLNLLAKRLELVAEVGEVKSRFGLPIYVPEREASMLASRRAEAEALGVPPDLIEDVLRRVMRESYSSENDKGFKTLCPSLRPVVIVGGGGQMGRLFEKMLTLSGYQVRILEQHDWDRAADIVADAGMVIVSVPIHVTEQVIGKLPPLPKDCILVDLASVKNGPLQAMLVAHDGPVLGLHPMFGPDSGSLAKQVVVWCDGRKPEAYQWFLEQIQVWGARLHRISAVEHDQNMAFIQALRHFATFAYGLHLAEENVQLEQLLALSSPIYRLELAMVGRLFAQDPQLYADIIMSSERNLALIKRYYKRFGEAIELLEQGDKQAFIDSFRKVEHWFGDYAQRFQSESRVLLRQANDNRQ
Method: (§1) For high expression levels of the tyrA^fbr genes, the respective pET30::tyrA^fbr plasmids were transformed to E. coli BL21 (DE3) competent cells (Novagen). The cells were cultivated in LB medium plus 20 μg/ml kanamycin and 1 mM isopropyl-β-D-thiogalactoside (IPTG). After reaching an OD600 of ˜1, the cells were collected by centrifugation, resuspended in binding buffer (20 mM Tris/HCl, 0.5 M NaCl, 5 mM imidazole, pH 7.9), and disrupted by sonication with a Branson Sonifier 450. The cell extract was centrifugated at 10,000×g for 15 min, and the supernatant was filtered through a 0.45 μm syringe filter (PALL Gelman Laboratory). The native His6-tagged TyrA protein was purified by pre-charged His-Bind column chromatography according to the manufacturer's protocol (Novagen). The eluated protein solution was desalted by Econo-Paco®10DG columns (Biorad) and concentrated by Centriprep®YM10 centrifugal ultrafiltration devices (Millipore). Expression and purification steps were controlled by SDS-PAGE (Laemmli, U. K. 1970. Nature 227: 680-685). […]
(§2) PDH activities of purified TyrA proteins were determined spectrophotometrically according to NADH formation (Davidson, B. E., and G. S. Hudson. 1987. Methods Enzymol. 142: 440-450). […] The reaction was started by addition of approximately 0.1 μg of enzyme which corresponded to 5-20 μl of enzyme solution, and the absorbance at 340 nm was followed for 2 min. […]

[2] = tested on: prephenate dehydrogenase (PDH) activity of TyrA (CM/PDH) protein; assay: as above; assay type: biochemical, Escherichia coli K12; conditions: purified His6-tagged TyrA protein, absence of tyrosine
Method: as §1, §2

[3] = tested on: chorismate mutase (CM) activity of TyrA (CM/PDH) protein; assay: Chorismate mutase (CM) activity with purified TyrA proteins; assay type: biochemical, Escherichia coli K12
Method: as §1
CM activities were determined spectrophotometrically based on the formation of phenylpyruvate by treatment with HCl (Davidson, B. E., and G. S. Hudson. 1987. Methods Enzymol. 142: 440-450). […] The samples were alkalized with 1 ml of 2.5 M NaOH, and the absorbance was measured at 320 nm according to a blank sample without enzyme. […]

NC(Cc1ccc(O)c(F)c1)C(=O)O (racemic) [m-fluoro-D,L-tyrosine]
concentration of m-fluoro-D,L-tyrosine inhibiting growth (E. coli DH5α; E. coli DH5α without plasmid): ≥ 0.1 mM
effect on growth of E. coli DH5α harboring plasmid pZE21::tyrA^WT (E. coli DH5α; selection at ≧2 mM m-fluoro-D,L-tyrosine): inhibits growth

N[C@@H](Cc1ccc(O)cc1)C(=O)O [L-tyrosine]
effect of L-tyrosine on growth inhibited by m-fluoro-D,L-tyrosine (E. coli DH5α; E. coli DH5α without plasmid, equimolar amounts of L-tyrosine): restored growth

TyrA^WT: wild-type chorismate mutase/prephenate dehydrogenase (T-protein) of E. coli K12, His6-tagged, purified
specific PDH activity in the presence of tyrosine, relative to activity in the absence of tyrosine [1]: less than 10%
PDH activity, 0 μM Tyrosine [2]: 29.8 U/mg and 29.80 U/mg
CM activity, 100 μM Tyrosine ([3]; 100 μM tyrosine in the presence of 100 μM NAD+): 1.23 U/mg
CM activity, 0 μM Tyrosine ([3]; absence of tyrosine): 1.32 U/mg
